Test results as given in patent US20250188186A1.

Experiments:
[1] = biological target: human FcγRIIIa F158 ectodomain, N-terminal AVI and C-terminal His tags (human) (UniProt P08637); experiment: BLI, antibody on FAB2G tips, FcγRIIIa F158 in solution, pH 7.4, steady-state Kd,SS (Langmuir fit)
[2] = biological target: human FcγRIIb ectodomain, N-terminal AVI and C-terminal His tags (human) (UniProt P31994); experiment: BLI, antibody on FAB2G tips, FcγRIIb in solution, pH 6.5, steady-state Kd,SS
[3] = biological target: human FcγRIIa R131 ectodomain, N-terminal AVI and C-terminal His tags (human) (UniProt P12318); experiment: BLI, antibody on FAB2G tips, FcγRIIa R131 in solution, pH 7.4, steady-state Kd,SS
Chain of human FcγRIIa R131 ectodomain, N-terminal AVI and C-terminal His tags (human) (P12318 34-217 H167R): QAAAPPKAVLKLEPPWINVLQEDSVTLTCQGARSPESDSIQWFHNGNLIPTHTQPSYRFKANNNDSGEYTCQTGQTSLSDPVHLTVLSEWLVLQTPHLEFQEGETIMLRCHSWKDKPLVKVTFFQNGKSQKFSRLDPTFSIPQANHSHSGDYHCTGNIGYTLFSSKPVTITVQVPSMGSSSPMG

[4] = biological target: human FcγRIIIa F158 ectodomain, N-terminal AVI and C-terminal His tags (human) (UniProt P08637); experiment: BLI, antibody on FAB2G tips, FcγRIIIa F158 in solution, pH 7.4, kinetic Kd
[5] = biological target: human FcγRIIb ectodomain, N-terminal AVI and C-terminal His tags (human) (UniProt P31994); experiment: BLI, antibody on FAB2G tips, FcγRIIb in solution, pH 7.4, steady-state Kd,SS
[6] = biological target: human FcγRIIa R131 ectodomain, N-terminal AVI and C-terminal His tags (human) (UniProt P12318); experiment: BLI, antibody on FAB2G tips, FcγRIIa R131 in solution, pH 6.5, steady-state Kd,SS
[7] = biological target: human FcγRIIa H131 ectodomain, N-terminal AVI and C-terminal His tags (human) (UniProt P12318); experiment: BLI, antibody on FAB2G tips, FcγRIIa H131 in solution, pH 6.5, steady-state Kd,SS
Chain of human FcγRIIa H131 ectodomain, N-terminal AVI and C-terminal His tags (human) (P12318 34-217): as the sequence (P12318 34-217 H167R) above, with R134H counted along it

[8] = biological target: human FcγRIIIa F158 ectodomain, N-terminal AVI and C-terminal His tags (human) (UniProt P08637); experiment: BLI, antibody on FAB2G tips, FcγRIIIa F158 in solution, pH 6.5, kinetic Kd
[9] = biological target: human FcγRIIa H131 ectodomain, N-terminal AVI and C-terminal His tags (human) (UniProt P12318); experiment: BLI, antibody on FAB2G tips, FcγRIIa H131 in solution, pH 7.4, steady-state Kd,SS
[10] = biological target: FcγRIIIa allele V158 on NK-92 effector cells (human) (UniProt P08637); experiment: cell-based or functional assay
Chain of FcγRIIIa allele V158 on NK-92 effector cells (human) (P08637 17-254 F176V): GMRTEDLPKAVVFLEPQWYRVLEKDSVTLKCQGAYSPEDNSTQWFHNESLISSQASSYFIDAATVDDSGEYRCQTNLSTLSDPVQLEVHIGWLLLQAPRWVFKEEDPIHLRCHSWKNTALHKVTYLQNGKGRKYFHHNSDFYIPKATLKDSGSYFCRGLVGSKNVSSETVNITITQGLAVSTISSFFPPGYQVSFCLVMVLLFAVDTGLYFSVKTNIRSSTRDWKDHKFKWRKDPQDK

[11] = biological target: human FcγRIIIa F158 ectodomain, N-terminal AVI and C-terminal His tags (human) (UniProt P08637); experiment: BLI, antibody on FAB2G tips, FcγRIIIa F158 in solution, pH 6.5, steady-state Kd,SS (Langmuir fit)
[12] = biological target: GST-tagged human FcRn-β2m (human) (UniProt P55899); experiment: ELISA, antibody immobilized, FcRn titrated (the concentration is that of FcRn), anti-FLAG-HRP, pH 6.0 [pH 6.0]

Chain of human FcγRIIIa F158 ectodomain, N-terminal AVI and C-terminal His tags (human) (P08637 17-208): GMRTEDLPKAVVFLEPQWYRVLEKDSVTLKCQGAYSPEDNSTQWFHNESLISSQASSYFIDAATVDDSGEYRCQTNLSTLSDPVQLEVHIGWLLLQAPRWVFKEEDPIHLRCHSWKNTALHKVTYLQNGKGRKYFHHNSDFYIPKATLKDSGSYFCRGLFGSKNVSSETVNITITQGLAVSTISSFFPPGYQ
Chain of human FcγRIIb ectodomain, N-terminal AVI and C-terminal His tags (human) (P31994 43-217): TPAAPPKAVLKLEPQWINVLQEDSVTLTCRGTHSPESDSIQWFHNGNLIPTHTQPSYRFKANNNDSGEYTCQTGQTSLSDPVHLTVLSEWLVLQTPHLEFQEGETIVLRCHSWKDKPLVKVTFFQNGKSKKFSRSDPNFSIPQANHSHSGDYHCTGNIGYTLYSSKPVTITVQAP

| Kd [1] [nM] | Kd [2] [nM] | Kd [3] [nM] | Kd [4] [nM] | Kd [5] [nM] | Kd [6] [nM] | Kd [7] [nM] | Kd [8] [nM] | Kd [9] [nM] | ADCC EC50, SKBR3 target cells, NK-92 (V158) effector cells, pH 6.5 [10] [ng/mL] | ADCC EC50, SKBR3 target cells, NK-92 (V158) effector cells, pH 7.4 [10] [ng/mL] | ADCC: lysis of calcein-loaded SKOV3 target cells, 50 ng/mL antibody, E:T 10:1, 4 h, pH 6.5 [10] [%] | ADCC: lysis of calcein-loaded SKOV3 target cells, 50 ng/mL antibody, E:T 10:1, 4 h, pH 7.4 [10] [%] | Kd [11] [nM] | EC50 (read off the curve) [12] [µg/mL] | Substance |
| --- | --- | --- | --- | --- | --- | --- | --- | --- | --- | --- | --- | --- | --- | --- | --- |
| 1090 | 112 | 37.1 | 909 | 109 | 37.1 | 331 | 538 | 497 | 121 | 2310 | 47.6 | 19.5 | 603 | – | hu4D5 antibody with acid-Fc (S267E, H268D, Y296H) |
| – | – | – | – | – | – | – | – | – | – | – | – | – | – | 0.01 | hu4D5 antibody with M252Y/S254T/T256E (YTE) Fc |
